Laboratory results as given in US20250076311A1 (Chugai, published 2025).

T1: cynomolgus monkey FcγRIIIaS extracellular domain with C-terminal His-tag (cynomolgus monkey, UniProt Q8SPW2 21-206 at identity 1.00))
T1 construct: also called cyno FcgRIIIaS; cynoFcγRIIIaS
T1 chain: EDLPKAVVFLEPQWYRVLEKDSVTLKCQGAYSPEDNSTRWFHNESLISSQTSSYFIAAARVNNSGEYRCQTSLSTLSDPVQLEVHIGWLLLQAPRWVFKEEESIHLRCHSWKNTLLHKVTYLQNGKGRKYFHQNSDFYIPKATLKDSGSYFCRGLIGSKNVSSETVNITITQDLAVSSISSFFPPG

T2: human FcγRIIaR extracellular domain with C-terminal His-tag (human, UniProt P12318 34-217)
T2 construct: also called human FcgRIIaR; FcγRIIa (type R)
T2 chain: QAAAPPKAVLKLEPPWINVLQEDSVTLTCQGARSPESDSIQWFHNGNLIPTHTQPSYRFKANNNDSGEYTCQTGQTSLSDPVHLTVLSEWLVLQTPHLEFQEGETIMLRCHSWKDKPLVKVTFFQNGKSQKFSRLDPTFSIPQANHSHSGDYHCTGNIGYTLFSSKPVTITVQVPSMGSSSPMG

T3: human FcγRIIaH extracellular domain with C-terminal His-tag (human, UniProt P12318 34-217)
T3 construct: also called human FcgRIIaH; FcγRIIa (type H)
T3 sequence: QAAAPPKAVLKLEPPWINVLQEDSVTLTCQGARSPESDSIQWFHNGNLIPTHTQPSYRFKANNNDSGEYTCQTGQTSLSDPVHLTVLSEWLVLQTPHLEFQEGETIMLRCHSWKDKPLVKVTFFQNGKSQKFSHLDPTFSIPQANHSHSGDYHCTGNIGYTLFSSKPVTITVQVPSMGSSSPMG

T4: cynomolgus monkey FcγRIIa3 extracellular domain with C-terminal His-tag (cynomolgus monkey)
T4 construct: also called cyno FcgRIIa3; cynoFcγRIIa3
T4 chain: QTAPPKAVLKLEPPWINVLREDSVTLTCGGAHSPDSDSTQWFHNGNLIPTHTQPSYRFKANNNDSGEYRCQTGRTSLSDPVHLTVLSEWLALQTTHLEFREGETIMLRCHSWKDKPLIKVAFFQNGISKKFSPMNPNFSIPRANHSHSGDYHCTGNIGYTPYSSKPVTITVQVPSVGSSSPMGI

T5: cynomolgus monkey FcγRIIa2 extracellular domain with C-terminal His-tag (cynomolgus monkey)
T5 construct: also called cyno FcgRIIa2; cynoFcγRIIa2
T5 chain: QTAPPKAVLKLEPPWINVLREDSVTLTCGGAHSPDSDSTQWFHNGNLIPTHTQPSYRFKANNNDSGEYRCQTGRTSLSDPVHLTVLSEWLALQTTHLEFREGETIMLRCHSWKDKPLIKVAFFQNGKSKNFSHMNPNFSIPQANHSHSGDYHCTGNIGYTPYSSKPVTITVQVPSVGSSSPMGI


What was measured:
[1] = biological target: T1, cynomolgus monkey FcγRIIIaS …; assay: SPR (Biacore), KD of SG1 / KD of variant
[2] = biological target: T2, human FcγRIIaR extracellular domain …; assay: SPR (Biacore), antibody captured, FcgR analyte
[3] = biological target: T3, human FcγRIIaH extracellular domain …; assay: SPR (Biacore), KD of SG1 / KD of variant
[4] = biological target: T3, human FcγRIIaH extracellular domain …; assay: SPR (Biacore), antibody captured, FcgR analyte
[5] = biological target: T4, cynomolgus monkey FcγRIIa3 …; assay: SPR (Biacore), KD of SG1 / KD of variant
[6] = biological target: T6, human FcγRIIIaV extracellular domain with C-terminal His-tag (human, UniProt P08637 17-208); assay: SPR (Biacore), KD of SG1 / KD of variant
T6 construct: also called human FcgRIIIaV

[7] = biological target: T5, cynomolgus monkey FcγRIIa2 …; assay: SPR (Biacore), KD of SG1 / KD of variant
[8] = biological target: T6, human FcγRIIIaV extracellular domain …; assay: SPR (Biacore), antibody captured, FcgR analyte

T6 sequence (P08637 17-208 F176V): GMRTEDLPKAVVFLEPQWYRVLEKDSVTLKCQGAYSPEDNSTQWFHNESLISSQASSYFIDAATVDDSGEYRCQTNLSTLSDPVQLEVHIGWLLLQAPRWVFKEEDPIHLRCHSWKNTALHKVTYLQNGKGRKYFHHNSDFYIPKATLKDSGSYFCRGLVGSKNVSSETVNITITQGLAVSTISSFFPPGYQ

Binder	KD fold (SG1 = 1) [1] [fold]	Kd [2] [nM]	KD fold (SG1 = 1) [3] [fold]	also measured
M103205H795-MY441/M103202L889-SK1 (antibody, human IgG1, kappa, Substitutions in EU numbering on SG1) heavy: QVTLKESGPVLVKPTETLTLTCTVSGIDLSHDDISWVRQAPGKGLEWVGIISYAGSTYYASWAKGRLTISKDTSKNQVVLTMTNMDPVDTATYYCARGVPAYSHGGDLWGQGTLVTVSSASTKGPSVFPLAPSSKSTSGGTAALGCLVKDYFPEPVTVSWNSGALTSGVHTFPAVLQSSGLYSLSSVVTVPSSSLGTQTYICNVNHKPSNTKVDKKVEPKSCDKTHTCPPCPAAELLTGPSVFLFPPKPKDTLMISRTPEVTCVVVDVSDEDPEVKFNWYVDGVEVHNAKTKPREEQYNSTYRVVSVLTVLHQDWLNGKEYKCKVSNKALPKPIEKTISKAKGQPREPQVYTLPPSREEMTKNQVSLTCLVKGFYPSDIAVEWESNGQPENNYKTTPPVLDSDGSFFLYSKLTVDKSRWQQGNVFSCSVMHEALHNHYTQKSLSLSP light: DIVMTQSPATLSLSPGERATLSCTSSQSVYHANWLSWFQQKPGQPPKLLIYWASTLAYGVPSRFSGSGSGTDFTLTISSLQPEDAATYYCAGGYGGGRYAFGQGTKVEIKRTVAAPSVFIFPPSDEQLKSGTASVVCLLNNFYPREAKVQWKVDNALQSGNSQESVTEQDSKDSTYSLSSTLTLSKADYEKHKVYACEVTHQGLSSPVTKSFNRGEC	0.2	600		
M103205H795-MY459/M103202L889-SK1 (antibody, Substitutions in EU numbering on SG1) heavy: QVTLKESGPVLVKPTETLTLTCTVSGIDLSHDDISWVRQAPGKGLEWVGIISYAGSTYYASWAKGRLTISKDTSKNQVVLTMTNMDPVDTATYYCARGVPAYSHGGDLWGQGTLVTVSSASTKGPSVFPLAPSSKSTSGGTAALGCLVKDYFPEPVTVSWNSGALTSGVHTFPAVLQSSGLYSLSSVVTVPSSSLGTQTYICNVNHKPSNTKVDKKVEPKSCDKTHTCPPCPDPELLTGPSVFLFPPKPKDTLMISRTPEVTCVVVDVSDEDPEVKFNWYVDGVEVHNAKTKPREEQYNSTYRVVSVLTVLHQDWLNGKEYKCKVSNKALPKPIEKTISKAKGQPREPQVYTLPPSREEMTKNQVSLTCLVKGFYPSDIAVEWESNGQPENNYKTTPPVLDSDGSFFLYSKLTVDKSRWQQGNVFSCSVMHEALHNHYTQKSLSLSP light: DIVMTQSPATLSLSPGERATLSCTSSQSVYHANWLSWFQQKPGQPPKLLIYWASTLAYGVPSRFSGSGSGTDFTLTISSLQPEDAATYYCAGGYGGGRYAFGQGTKVEIKRTVAAPSVFIFPPSDEQLKSGTASVVCLLNNFYPREAKVQWKVDNALQSGNSQESVTEQDSKDSTYSLSSTLTLSKADYEKHKVYACEVTHQGLSSPVTKSFNRGEC	0.2		1.6	
M103205H795-MY449/M103202L889-SK1 (antibody, human IgG1, kappa, Substitutions in EU numbering on SG1) heavy: QVTLKESGPVLVKPTETLTLTCTVSGIDLSHDDISWVRQAPGKGLEWVGIISYAGSTYYASWAKGRLTISKDTSKNQVVLTMTNMDPVDTATYYCARGVPAYSHGGDLWGQGTLVTVSSASTKGPSVFPLAPSSKSTSGGTAALGCLVKDYFPEPVTVSWNSGALTSGVHTFPAVLQSSGLYSLSSVVTVPSSSLGTQTYICNVNHKPSNTKVDKKVEPKSCDKTHTCPPCPALELLTGPSVFLFPPKPKDTLMISRTPEVTCVVVDVSDEDPEVKFNWYVDGVEVHNAKTKPREEQYNSTYRVVSVLTVLHQDWLNGKEYKCKVSNKALPKPIEKTISKAKGQPREPQVYTLPPSREEMTKNQVSLTCLVKGFYPSDIAVEWESNGQPENNYKTTPPVLDSDGSFFLYSKLTVDKSRWQQGNVFSCSVMHEALHNHYTQKSLSLSP light: DIVMTQSPATLSLSPGERATLSCTSSQSVYHANWLSWFQQKPGQPPKLLIYWASTLAYGVPSRFSGSGSGTDFTLTISSLQPEDAATYYCAGGYGGGRYAFGQGTKVEIKRTVAAPSVFIFPPSDEQLKSGTASVVCLLNNFYPREAKVQWKVDNALQSGNSQESVTEQDSKDSTYSLSSTLTLSKADYEKHKVYACEVTHQGLSSPVTKSFNRGEC				Kd [4]: 98 nM
M103205H795-MY443/M103202L889-SK1 (antibody, human IgG1, kappa, Substitutions in EU numbering on SG1) heavy: QVTLKESGPVLVKPTETLTLTCTVSGIDLSHDDISWVRQAPGKGLEWVGIISYAGSTYYASWAKGRLTISKDTSKNQVVLTMTNMDPVDTATYYCARGVPAYSHGGDLWGQGTLVTVSSASTKGPSVFPLAPSSKSTSGGTAALGCLVKDYFPEPVTVSWNSGALTSGVHTFPAVLQSSGLYSLSSVVTVPSSSLGTQTYICNVNHKPSNTKVDKKVEPKSCDKTHTCPPCPAEELLTGPSVFLFPPKPKDTLMISRTPEVTCVVVDVSDEDPEVKFNWYVDGVEVHNAKTKPREEQYNSTYRVVSVLTVLHQDWLNGKEYKCKVSNKALPKPIEKTISKAKGQPREPQVYTLPPSREEMTKNQVSLTCLVKGFYPSDIAVEWESNGQPENNYKTTPPVLDSDGSFFLYSKLTVDKSRWQQGNVFSCSVMHEALHNHYTQKSLSLSP light: DIVMTQSPATLSLSPGERATLSCTSSQSVYHANWLSWFQQKPGQPPKLLIYWASTLAYGVPSRFSGSGSGTDFTLTISSLQPEDAATYYCAGGYGGGRYAFGQGTKVEIKRTVAAPSVFIFPPSDEQLKSGTASVVCLLNNFYPREAKVQWKVDNALQSGNSQESVTEQDSKDSTYSLSSTLTLSKADYEKHKVYACEVTHQGLSSPVTKSFNRGEC	0.2		1.5	KD fold (SG1 = 1) [5]: 1.5 fold

Now from value to binder, other results behind:

KD fold (SG1 = 1) [1] [fold]	Kd [2] [nM]	KD fold (SG1 = 1) [3] [fold]	Binder	also measured
0.2			M103205H795-MY460/M103202L889-SK1 (antibody) chain 1: QVTLKESGPVLVKPTETLTLTCTVSGIDLSHDDISWVRQAPGKGLEWVGIISYAGSTYYASWAKGRLTISKDTSKNQVVLTMTNMDPVDTATYYCARGVPAYSHGGDLWGQGTLVTVSSASTKGPSVFPLAPSSKSTSGGTAALGCLVKDYFPEPVTVSWNSGALTSGVHTFPAVLQSSGLYSLSSVVTVPSSSLGTQTYICNVNHKPSNTKVDKKVEPKSCDKTHTCPPCPEPELLTGPSVFLFPPKPKDTLMISRTPEVTCVVVDVSDEDPEVKFNWYVDGVEVHNAKTKPREEQYNSTYRVVSVLTVLHQDWLNGKEYKCKVSNKALPKPIEKTISKAKGQPREPQVYTLPPSREEMTKNQVSLTCLVKGFYPSDIAVEWESNGQPENNYKTTPPVLDSDGSFFLYSKLTVDKSRWQQGNVFSCSVMHEALHNHYTQKSLSLSP chain 2: DIVMTQSPATLSLSPGERATLSCTSSQSVYHANWLSWFQQKPGQPPKLLIYWASTLAYGVPSRFSGSGSGTDFTLTISSLQPEDAATYYCAGGYGGGRYAFGQGTKVEIKRTVAAPSVFIFPPSDEQLKSGTASVVCLLNNFYPREAKVQWKVDNALQSGNSQESVTEQDSKDSTYSLSSTLTLSKADYEKHKVYACEVTHQGLSSPVTKSFNRGEC	
	260		M103205H795-MY466/M103202L889-SK1 (antibody, Substitutions in EU numbering on SG1) heavy: QVTLKESGPVLVKPTETLTLTCTVSGIDLSHDDISWVRQAPGKGLEWVGIISYAGSTYYASWAKGRLTISKDTSKNQVVLTMTNMDPVDTATYYCARGVPAYSHGGDLWGQGTLVTVSSASTKGPSVFPLAPSSKSTSGGTAALGCLVKDYFPEPVTVSWNSGALTSGVHTFPAVLQSSGLYSLSSVVTVPSSSLGTQTYICNVNHKPSNTKVDKKVEPKSCDKTHTCPPCPLPELLTGPSVFLFPPKPKDTLMISRTPEVTCVVVDVSDEDPEVKFNWYVDGVEVHNAKTKPREEQYNSTYRVVSVLTVLHQDWLNGKEYKCKVSNKALPKPIEKTISKAKGQPREPQVYTLPPSREEMTKNQVSLTCLVKGFYPSDIAVEWESNGQPENNYKTTPPVLDSDGSFFLYSKLTVDKSRWQQGNVFSCSVMHEALHNHYTQKSLSLSP light: DIVMTQSPATLSLSPGERATLSCTSSQSVYHANWLSWFQQKPGQPPKLLIYWASTLAYGVPSRFSGSGSGTDFTLTISSLQPEDAATYYCAGGYGGGRYAFGQGTKVEIKRTVAAPSVFIFPPSDEQLKSGTASVVCLLNNFYPREAKVQWKVDNALQSGNSQESVTEQDSKDSTYSLSSTLTLSKADYEKHKVYACEVTHQGLSSPVTKSFNRGEC	KD fold (SG1 = 1) [6]: 0.2 fold; KD fold (SG1 = 1) [7]: 2.8 fold; Kd [8]: 4600 nM
